Data reported in PMC5128727, “Metalloprotease SPRTN/DVC1 Orchestrates Replication-Coupled DNA-Protein Crosslink Repair”.

Molecular target: T1, SPRTN WT (human, UniProt Q9H040 1-489)
T1 sequence: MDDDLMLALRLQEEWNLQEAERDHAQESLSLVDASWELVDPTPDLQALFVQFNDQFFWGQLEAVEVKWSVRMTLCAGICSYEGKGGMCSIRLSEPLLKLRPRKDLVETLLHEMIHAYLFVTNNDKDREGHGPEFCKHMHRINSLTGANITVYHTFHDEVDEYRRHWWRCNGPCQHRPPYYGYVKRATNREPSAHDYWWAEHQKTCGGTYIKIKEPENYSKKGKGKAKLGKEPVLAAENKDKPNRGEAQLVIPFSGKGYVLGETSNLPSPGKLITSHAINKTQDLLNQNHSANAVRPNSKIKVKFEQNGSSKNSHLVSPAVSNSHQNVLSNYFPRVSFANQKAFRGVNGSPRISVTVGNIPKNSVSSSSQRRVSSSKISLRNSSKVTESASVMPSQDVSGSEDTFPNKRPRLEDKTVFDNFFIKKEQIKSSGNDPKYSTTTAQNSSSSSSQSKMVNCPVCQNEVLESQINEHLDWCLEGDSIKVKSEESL
Assay: fluorescence polarization; affinity similar to dsDNA; Probe annealing buffer: 10 mM HEPES pH 7.5, 50 mM NaCl; FP assay buffer and temperature not in the material
Details: protein: recombinant; tags: His-ZB tag cleaved by TEV; label: FITC (position not in material); single strand

B1: ssDNA (OD1) (ssDNA)
DNA: ATCGATAGTCGGATCCTCTAGACAGCTCCATGTAGCAAGGCACTGGTAGAATTCGGCAGCGTC
binding result: binds
